Assay in all cases: fluorescence anisotropy
The target in data set [1] is T1, MeCP2 (full-length) (human, UniProt P51608 1-486).
The target in data set [2] is T1, MeCP2 (full-length). This is another data set of the same source.
In data set [3] the target is T1, MeCP2 (full-length). The source holds these as a separate data set.
Data set [4] addresses T1, MeCP2 (full-length). This is another data set of the same source.
The target of data set [5] is T1, MeCP2 (full-length). This is another data set of the same source.
Data set [6] has as its target T1, MeCP2 (full-length). This is another data set of the same source.
Data set [7] deals with T1, MeCP2 (full-length). This is another data set of the same source.

Like-named read-outs stand apart in the source and are kept apart here.

T1 sequence (P51608 whole entry): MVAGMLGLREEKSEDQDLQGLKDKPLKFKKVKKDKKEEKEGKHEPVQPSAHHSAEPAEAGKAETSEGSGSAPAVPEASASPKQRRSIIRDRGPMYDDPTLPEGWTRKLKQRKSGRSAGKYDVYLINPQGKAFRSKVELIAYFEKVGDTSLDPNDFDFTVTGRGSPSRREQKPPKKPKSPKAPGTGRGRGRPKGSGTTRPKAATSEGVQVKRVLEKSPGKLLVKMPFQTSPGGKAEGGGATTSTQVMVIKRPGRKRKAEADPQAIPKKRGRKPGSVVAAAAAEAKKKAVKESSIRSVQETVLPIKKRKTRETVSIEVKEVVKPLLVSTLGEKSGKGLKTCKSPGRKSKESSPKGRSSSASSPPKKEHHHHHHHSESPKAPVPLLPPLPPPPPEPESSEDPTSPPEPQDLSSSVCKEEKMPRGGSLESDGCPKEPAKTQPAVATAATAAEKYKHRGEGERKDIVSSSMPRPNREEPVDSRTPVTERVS

B1: CpG 20 bp duplex (-/-) (dsDNA)
DNA 1: TCTGGAACGGAATTCTTCTA
DNA 2: TAGAAGAATTCCGTTCCAGA
modifications: none
Usually Kd stands for a measure of binding affinity in units of concentration. Read a high Kd as weaker binding. For the molecule B1, the Kd with MeCP2 (full-length) [1] is 56.5 ± 1.8 nM; with MeCP2 (full-length) [2] it was 155 ± 3.7 nM; with MeCP2 (full-length) [3], 6.3 ± 0.3 nM.

B2: mCpG 20 bp duplex (m/m) (dsDNA)
DNA 1: TCTGGAACGGAATTCTTCTA
DNA 2: TAGAAGAATTCCGTTCCAGA
modifications: 5mC at CpG C of both strands (strand 1 C8, strand 2 C12)
With B2, the Kd is 28.3 ± 1.1 nM with MeCP2 (full-length) [4], 5.2 ± 0.4 nM with MeCP2 (full-length) [5], 36.5 ± 1.4 nM with MeCP2 (full-length) [6] and 80.3 ± 2.5 nM with MeCP2 (full-length) [7].

(Values after article PMC6532394.)
